Patent US20080281082 (published 2008)
Residue numbers refer to the chain shown, from its start. Blank lines part the entries; values can stand above or below the binder they belong to.

Target: Aβ (beta amyloid peptide) (human)
Assay: SPR

Kd: 2.24 nM
B1: humanized 3D6v2 (antibody, V domains shown)
VH: EVQLLESGGGLVQPGGSLRLSCAASGFTFSNYGMSWVRQAPGKGLEWVASIRSGGGRTYYSDNVKGRFTISRDNSKNTLYLQMNSLRAEDTAVYYCVRYDHYSGSSDYWGQGTLVTVSS
VL: DVVMTQSPLSLPVTPGEPASISCKSSQSLLDSDGKTYLNWLLQKPGQSPQRLIYLVSKLDSGVPDRFSGSGSGTDFTLKISRVEAEDVGVYYCWQGTHFPRTFGQGTKVEIK

Kd: 2.06 nM
B2: humanized 3D6v1 (antibody, V domains shown)
VH: B1 VH with S75A, T78S, V93L
VL: B1 VL with D1Y
